Article PMC4882459 (The Journal of Biological Chemistry, 2016)

Molecular target: T1, C1q (human, UniProt P02745 23-245; P02746 28-253; P02747 29-245)
T1 construct: also called human C1q; purified C1q; source: bought: Calbiochem (purified); also endogenous, human serum; copies: + +
Test: ELISA; C1q binding assay: ES-62, PCh-BSA or CWPS coated to give equivalent CRP binding; CRP 0.4 ug/ml added, then purified C1q at 0, 0.2, 2.0 and 5.0 ug/ml, 1 h at room temperature; detected with anti-C1q
Details: both partners purified

T1 sequence (P02745 23-245, chain 1 of 3): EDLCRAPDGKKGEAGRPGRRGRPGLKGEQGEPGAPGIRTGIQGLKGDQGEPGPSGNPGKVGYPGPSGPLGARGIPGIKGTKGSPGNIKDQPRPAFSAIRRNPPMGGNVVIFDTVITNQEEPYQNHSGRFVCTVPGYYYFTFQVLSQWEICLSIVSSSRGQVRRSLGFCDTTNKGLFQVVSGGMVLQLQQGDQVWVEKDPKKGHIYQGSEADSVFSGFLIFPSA
T1 sequence (P02746 28-253, chain 2 of 3): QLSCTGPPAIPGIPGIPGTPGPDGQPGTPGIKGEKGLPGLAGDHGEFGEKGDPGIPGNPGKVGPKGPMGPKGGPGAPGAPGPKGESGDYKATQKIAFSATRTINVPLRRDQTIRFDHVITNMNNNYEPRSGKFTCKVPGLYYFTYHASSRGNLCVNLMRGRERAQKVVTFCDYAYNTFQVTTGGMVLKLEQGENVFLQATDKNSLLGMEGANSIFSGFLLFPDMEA
T1 sequence (P02747 29-245, chain 3 of 3): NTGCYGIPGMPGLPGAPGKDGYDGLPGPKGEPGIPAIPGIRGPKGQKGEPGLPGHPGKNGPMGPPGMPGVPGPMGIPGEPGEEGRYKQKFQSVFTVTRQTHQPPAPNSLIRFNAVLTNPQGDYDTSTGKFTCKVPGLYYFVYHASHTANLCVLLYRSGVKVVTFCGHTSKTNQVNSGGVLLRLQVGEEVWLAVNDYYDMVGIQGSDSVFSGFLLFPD

B1: C-reactive protein (native, human) (natural protein)
chain: QTDMSRKAFVFPKESDTSYVSLKAPLTKPLKAFTVCLHFYTELSSTRGYSIFSYATKRQDNEILIFWSKDIGYSFTVGGSEILFEVPEVTVAPVHICTSWESASGIVEFWVDGKPRVRKSLKKGYTVGAEASIILGQEQDSFGGNFEGSQSLVGDIGNVNMWDFVLSPDEINTIYLGGPFSPNVLNWRALKYEVQGEVFTKPQLWP
notes: C-reactive protein, human, native pentamer of subunits of ~25 kD; Used as purified protein, as purified protein added to diluted serum, and as the endogenous protein of normal human serum; also called CRP; native CRP; source: also endogenous, normal human serum
binding result: binds
